Assay results as given in article PMC8609353.

Assays:
[1] = target: N1 NA head domain from A/Michigan/45/2015 (H1N1), obtained from N1-MPP by thrombin cleavage (influenza A virus A/Michigan/45/2015 (H1N1)); assay: crystal structure; N1 head after thrombin removal of the MPP domain; sitting drop, 0.2 M calcium acetate, 20% PEG 3350, 20°C; 2.90 Å
[2] = target: N1-MPP: recombinant N1 neuraminidase head domain of A/Michigan/45/2015 (H1N1) fused to the measles virus phosphoprotein tetramerization domain (measles virus | influenza A virus A/Michigan/45/2015 (H1N1)); assay: cross-linking
[3] = target: N1-SPP: recombinant N1 neuraminidase head domain of A/Michigan/45/2015 (H1N1) fused to the Sendai virus phosphoprotein tetramerization domain (Sendai virus | influenza A virus A/Michigan/45/2015 (H1N1)); assay: cross-linking
[4] = target: N1-VASP: recombinant N1 neuraminidase head domain of A/Michigan/45/2015 (H1N1) fused to the vasodilator-stimulated phosphoprotein tetramerization domain (human | influenza A virus A/Michigan/45/2015 (H1N1)); assay: cross-linking

In the case of “N1 NA head domain from A/Michigan/45/2015 (H1N1), obtained from N1-MPP by thrombin cleavage (domain or fragment)”, the stoichiometry N [1] is reported as 4.

With “N1-MPP: recombinant N1 neuraminidase head domain of A/Michigan/45/2015 (H1N1) fused to the measles virus phosphoprotein tetramerization domain” the stoichiometry N [2] was 4.

“N1-SPP: recombinant N1 neuraminidase head domain of A/Michigan/45/2015 (H1N1) fused to the Sendai virus phosphoprotein tetramerization domain” showed a stoichiometry N [3] of 4.

“N1-VASP: recombinant N1 neuraminidase head domain of A/Michigan/45/2015 (H1N1) fused to the vasodilator-stimulated phosphoprotein tetramerization domain” was tested, and the stoichiometry N [4] was 4.
